Consider one molecule from PMC3741282, “Novel VEGF Decoy Receptor Fusion Protein Conbercept Targeting Multiple VEGF Isoforms Provide Remarkable Anti-Angiogenesis Effect In Vivo” (PLoS ONE, 2013).

Details in all cases: both partners purified
Assay [1] deals with T1, VEGF-A165.
T1 chain: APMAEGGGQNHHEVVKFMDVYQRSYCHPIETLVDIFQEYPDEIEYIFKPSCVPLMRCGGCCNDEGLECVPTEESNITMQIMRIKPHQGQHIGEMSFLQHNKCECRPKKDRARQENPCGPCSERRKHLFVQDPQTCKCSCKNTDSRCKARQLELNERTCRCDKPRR
Kind of assay: ELISA; antigen (VEGF-A165, VEGF-B167 or PlGF) coated at 4 nM in PBS on PVC plate, blocked with 1% BSA; diluted conbercept added 2 h at room temperature; detected with HRP goat anti-human secondary antibody, absorbance at 450 nm. Background: An ELISA detects its analyte on a solid surface through an enzyme-linked reagent.

Assay [2] deals with T2, placental growth factor (PlGF) (UniProt P49763 19-221).
T2 chain: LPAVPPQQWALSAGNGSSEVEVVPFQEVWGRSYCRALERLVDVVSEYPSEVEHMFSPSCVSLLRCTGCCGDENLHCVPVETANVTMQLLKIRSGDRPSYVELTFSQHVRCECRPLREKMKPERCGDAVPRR
Kind of assay: SPR; BIACORE 3000; VEGF-B167 and PlGF immobilized on CM5 chip, FC1 blank; conbercept injected at eight two-fold dilutions 31.25 nM to 4000 nM in HBS buffer. Background: SPR reads the build-up and loss of mass on a sensor chip optically.

For another assay, the target named is T3, VEGF-B167 (UniProt P49765-2 22-188).
T3 construct: VEGF-B, isoform VEGF-B167; source: bought: R&D
T3 sequence (looked up): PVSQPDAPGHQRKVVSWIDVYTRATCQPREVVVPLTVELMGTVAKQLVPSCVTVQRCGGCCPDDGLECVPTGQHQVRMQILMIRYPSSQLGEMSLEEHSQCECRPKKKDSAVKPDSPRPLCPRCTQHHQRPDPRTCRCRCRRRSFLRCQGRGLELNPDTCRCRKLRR
The assay is described as above.

Assay [3] addresses T1, VEGF-A165. Kind of assay: SPR; BIACORE 3000; VEGF-A isoforms amine-coupled on CM5 chip (about 5,000±500 RU), FC1 blank; conbercept injected at eight two-fold dilutions 1.25 nM to 160 nM in HBS buffer (10 mM HEPES, 0.15 M sodium chloride, 3.4 mM EDTA, 0.005% surfactant P20); 1:1 binding with baseline drift model.
The target in a further assay is T4, VEGF-A121.
T4 chain: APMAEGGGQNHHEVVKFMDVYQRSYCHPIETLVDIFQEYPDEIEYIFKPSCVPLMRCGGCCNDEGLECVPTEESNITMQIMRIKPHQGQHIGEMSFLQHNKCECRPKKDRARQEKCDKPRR
Described as above.

B1: conbercept (Fc fusion)
chain: GRPFVEMYSEIPEIIHMTEGRELVIPCRVTSPNITVTLKKFPLDTLIPDGKRIIWDSRKGFIISNATYKEIGLLTCEATVNGHLYKTNYLTHRQTNTIIDVVLSPSHGIELSVGEKLVLNCTARTELNVGIDFNWEYPSSKHQHKKLVNRDLKTQSGSEMKKFLSTLTIDGVTRSDQGLYTCAASSGLMTKKNSTFVRVHEKPFVAFGSGMESLVEATVGERVRIPAKYLGYPPPEIKWYKNGIPLESNHTIKAGHVLTIMEVSERDTGNYTVILTNPISKEKQSHVVSLVVYVPP
modifications: Human IgG1 Fc carrier left out; it dimerises the chain (copies 2). Limits not printed: VEGFR1 Ig2 and VEGFR2 Ig3-4 taken by convention from decoy-receptor boundaries and entry features. Glycosylated …
Consider B1, for which, in the assay with VEGF-A165 [1], the midpoint of the response, the EC50, lay at 0.1 nM. The Kd in assay [2] was determined as 51.2 nM; with VEGF-B167, 81.8 nM; in the assay with VEGF-A165 [3], 5.4 nM; in the assay with VEGF-A121, 5.26 nM. The koff in assay [2] came to 0.00581 s⁻¹; with VEGF-B167 it was 0.00558 s⁻¹; with VEGF-A165 [3] it was 0.00105 s⁻¹; in the assay with VEGF-A121, 0.00105 s⁻¹. The kon was 114000 M⁻¹ s⁻¹ in assay [2], 68300 M⁻¹ s⁻¹ in the assay with VEGF-B167, 194000 M⁻¹ s⁻¹ with VEGF-A165 [3] and 199000 M⁻¹ s⁻¹ with VEGF-A121.

The EC50 is the concentration at which the effect is half-maximal. Read a high EC50 as a less potent agent. Broadly, the Kd is the free concentration of one partner at which half of the binding sites on the other are occupied at equilibrium, for simple one-to-one binding. Broadly, the koff is a measure of how fast the partners let go of each other. As a reminder, the kon is a measure of how fast the partners come together. Lower therefore signals slow association.
